# T1: Non-POU domain-containing octamer-binding protein (NONO), endogenous, from HeLa nuclear extract (human (endogenous in HeLa), UniProt Q15233 1-471)
# T1 sequence: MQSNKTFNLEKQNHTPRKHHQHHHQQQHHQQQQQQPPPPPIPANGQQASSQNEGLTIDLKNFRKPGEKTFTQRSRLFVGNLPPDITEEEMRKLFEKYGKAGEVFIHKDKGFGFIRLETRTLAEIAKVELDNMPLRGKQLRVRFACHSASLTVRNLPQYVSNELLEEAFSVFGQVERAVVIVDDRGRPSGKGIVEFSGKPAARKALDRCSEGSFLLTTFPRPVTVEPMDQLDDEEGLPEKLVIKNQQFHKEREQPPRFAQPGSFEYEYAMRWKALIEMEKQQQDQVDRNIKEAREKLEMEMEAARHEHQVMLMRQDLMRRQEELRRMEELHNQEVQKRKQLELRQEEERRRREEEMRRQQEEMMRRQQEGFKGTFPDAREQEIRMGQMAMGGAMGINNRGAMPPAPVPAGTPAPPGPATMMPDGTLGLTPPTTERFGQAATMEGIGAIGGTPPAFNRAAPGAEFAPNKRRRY
# B1: Splicing factor, proline- and glutamine-rich (SFPQ), endogenous, from HeLa nuclear extract (natural protein)
# chain: MSRDRFRSRGGGGGGFHRRGGGGGRGGLHDFRSPPPGMGLNQNRGPMGPGPGQSGPKPPIPPPPPHQQQQQPPPQQPPPQQPPPHQPPPHPQPHQQQQPPPPPQDSSKPVVAQGPGPAPGVGSAPPASSSAPPATPPTSGAPPGSGPGPTPTPPPAVTSAPPGAPPPTPPSSGVPTTPPQAGGPPPPPAAVPGPGPGPKQGPGPGGPKGGKMPGGPKPGGGPGLSTPGGHPKPPHRGGGEPRGGRQHHPPYHQQHHQGPPPGGPGGRSEEKISDSEGFKANLSLLRRPGEKTYTQRCRLFVGNLPADITEDEFKRLFAKYGEPGEVFINKGKGFGFIKLESRALAEIAKAELDDTPMRGRQLRVRFATHAAALSVRNLSPYVSNELLEEAFSQFGPIERAVVIVDDRGRSTGKGIVEFASKPAARKAFERCSEGVFLLTTTPRPVIVEPLEQLDDEDGLPEKLAQKNPMYQKERETPPRFAQHGTFEYEYSQRWKSLDEMEKQQREQVEKNMKDAKDKLESEMEDAYHEHQANLLRQDLMRRQEELRRMEELHNQEMQKRKEMQLRQEEERRRREEEMMIRQREMEEQMRRQREESYSRMGYMDPRERDMRMGGGGAMNMGDPYGSGGQKFPPLGGGGGIGYEANPGVPPATMSGSMMGSDMRTERFGQGGAGPVGGQGPRGMGPGTPAGYGRGREEYEGPNKKPRF
# Molecular target: T1, Non-POU domain-containing …
# Experiment: affinity purification with mass spectrometry
binder,measurement,value
B1,stoichiometry N,1

# Source: publication PMC4338332 (RNA, 2015)
